Patent publication US20260184782A1 (TWIST BIOSCIENCE, published 2026)
Numbering of substitutions follows the chain as printed. Blank lines part the entries; values can stand above or below the binder they belong to.

How the values were obtained:
[1] = biological target: T1, TIGIT (UniProt Q495A1 22-141, limits assumed); assay: SPR, VHH-V5-His
T1 construct: construct not described; also called T cell immunoreceptor with Ig and ITIM domains
T1 sequence (looked up): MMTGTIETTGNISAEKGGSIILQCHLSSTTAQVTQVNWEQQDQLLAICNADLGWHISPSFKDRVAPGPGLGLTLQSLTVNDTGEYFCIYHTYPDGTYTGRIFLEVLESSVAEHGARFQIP

[2] = biological target: T2, recombinant human TIGIT (human, UniProt Q495A1 22-141, limits assumed); assay: SPR (Carterra), average
T2 construct: also called T cell immunoreceptor with Ig and ITIM domains
T2 sequence (looked up): T1 sequence (looked up)
Description: Binding affinities of VHH-Fc proteins to recombinant human TIGIT were measured by SPR using a Carterra instrument (Table 10A). […] Average values reported from measurements from 1-2 samples.

[3] = biological target: T3, human TIGIT-Fc (human, UniProt Q495A1 22-141, limits assumed); assay: CD155 competition ELISA, single point; note: test concentration or dose not given here
T3 construct: not shown: Fc; not described
T3 sequence (looked up): T1 sequence (looked up)
Description: (§1) TIGIT/CD155 inhibition of VHH-Fcs were assessed using an ELISA assay (Table 10B). Briefly, human TIGIT-Fc was coated on a plate & then incubated with VHH-Fcs and human CD155-biotin. Bound CD155-biotin was detected using a streptavidin-HRP conjugate visualized with TMB. Strong inhibitors from the single point screen were titrated to determine EC50 (Table 10C).

[4] = biological target: T4, TIGIT (UniProt Q495A1 22-141, limits assumed); assay: ELISA; set-up: unit not given here
T4 construct: also called T cell immunoreceptor with Ig and ITIM domains; hTIGIT
T4 sequence (looked up): T1 sequence (looked up)

[5] = biological target: T4, TIGIT; assay: SPR (Carterra)
[6] = biological target: T1, TIGIT; assay: SPR, VHH-V5-His; unit inferred
[7] = biological target: T3, human TIGIT-Fc; assay: CD155 competition ELISA, titration
Description: as §1

Kd [2]: 302000 nM | koff [2]: 0.0054 s⁻¹ | OD (450 nm) [3]: 0.414 OD
B3: TIGIT-SC157 (Fc fusion)
VHH: EVQLVESGGGLVQPGGSLRLSCAASGFTFSPSWMGWFRQAPGKEREWVASVLRGGYTWYADSVKGRFTISADNSKNTAYLQMNSLKPEDTAVYYCTTEGYDFWSGYYDYWGQGTLVTVSS
notes: VHH-Fc

Kd [6]: 7460 nM | RU [1]: 664 RU
B11: TIGIT-30-01 VHH-V5-His (VHH)
VHH: EVQLVESGGGLVQAGGSLRLSCAASGFAFSSYWMGWFRQAPGKERELVAARNSGGNTNYADSVKGRFTISADNAKNTVYLQMNSLKPEDTAVYYCAADVWYGSTWRNWGQGTQVTVSS
notes: not shown: V5 and His tags

Kd [6]: 222 nM | RU [1]: 113 RU
B12: TIGIT-30-40 VHH-V5-His (VHH)
VHH: B11 VHH with A28T, S31G, Y32N, L47W, A49V, A50G, R51I, N52S, N56S, N58H
notes: not shown: V5 and His tags

OD (450 nm) [3]: 0.263 OD | EC50 [7]: 11.9 nM
B13: TIGIT-SC149 (Fc fusion)
VHH: EVQLVESGGGLVQPGGSLRLSCAASGFTLENNMMGWFRQAPGKEREFVAAISRSGTLKAYADSVKGRFTISADNSKNTAYLQMNSLKPEDTAVYYCAKVQGPYCSGGSCYLYTFDLWGQGTLVTVSS
notes: VHH-Fc

Kd [6]: 500 nM | RU [1]: 123 RU
B15: TIGIT-29-22 VHH-V5-His (VHH)
VHH: EVQLVESGGGLVQAGGSLRLSCAASGSILSSYTMGWFRQAPGKEREFVSTISRSSTRTYYADSVKGRFTISADNAKNTVYLQMNSLKPEDTAVYYCAARLWGTWTAGDYDYWGQGTQVTVSS
notes: not shown: V5 and His tags

Kd [6]: 967 nM | RU [1]: 167 RU
B16: TIGIT-29-34 VHH-V5-His (VHH)
VHH: B15 VHH with S27F, I28T, L29F, S30R, S31N, T33A, T50S, R53S, T56S, Y59S
notes: not shown: V5 and His tags

OD (450 nm) [3]: 0.259 OD | EC50 [7]: 13.4 nM
B17: TIGIT-SC152 (Fc fusion)
VHH: EVQLVESGGGLVQPGGNLRLSCAASGSTFSKHHAMGWFRQAPGKEREFVAGIIRSGTLKAYADSVKGRFTISADNSKNTAYLQMNSLKPEDTAVYYCTRGRAARHNLWYFDLWGQGTLVTVSS
notes: VHH-Fc

OD (450 nm) [3]: 0.241 OD | EC50 [7]: 4.36 nM
B23: TIGIT-SC83 (Fc fusion)
VHH: EVQLVESGGGLVQPGGSLRLSCAASGRTFSDDAMGWFRQAPGKEREFVAAISRSGGNTYYADSVKGRFTISADNSKNTAYLQMNSLKPEDTAVYYCAKWFYYGSGLYTLDVWGQGTLVTVSS
notes: VHH-Fc

Kd [6]: 232 nM | RU [1]: 77 RU
B26: TIGIT-29-30 VHH-V5-His (VHH)
VHH: EVQLVESGGGLVQAGGSLRLSCAASGFTFSSYAMGWFRQAPGKEREFVAAITWSGTRTDYADSVKGRFTISADNAKNTVYLQMNSLKPEDTAVYYCAAAAWRYSEYDYWGQGTQVTVSS
notes: not shown: V5 and His tags

Kd [6]: 465 nM | RU [1]: 26 RU
B28: TIGIT-29-07 VHH-V5-His (VHH)
VHH: EVQLVESGGGLVQAGGSLRLSCAASGSIFSNYAMGWFRQAPGKEREFVATISRGGTRTNYADSVKGRFTISADNAKNTVYLQMNSLKPEDTAVYYCAAAAWTIYAYNYWGQGTQVTVSS
notes: not shown: V5 and His tags

The next lines start with the binder.

B1: TIGIT-29-06 VHH-V5-His (VHH)
VHH: EVQLVESGGGLVQAGGSLRLSCAASGGTFRSYVMGWFRQAPGKEREWVATINSSGSRTYYADSVKGRFTISADNAKNTVYLQMNSLKPEDTAVYYCAARPNYRDYEYWGQGTQVTVSS
notes: not shown: V5 and His tags
RU [1]: 26100 RU

B2: TIGIT-SC210 (Fc fusion)
VHH: EVQLVESGGGLVQPGGSLRLSCAASGFLFDSYWMVWFRQAPGKEREFVAAIWRSGTLKAYADSVKGRFTISADNSKNTAYLQMNSLKPEDTAVYYCARDHRAMVAPFDYWGQGTLVTVSS
notes: VHH-Fc
Kd [2]: 6330 nM | koff [2]: 0.258 s⁻¹ | kon [2]: 40700 M⁻¹ s⁻¹ | OD (450 nm) [3]: 0.516 OD

B4: TIGIT-SC196 (Fc fusion)
VHH: EVQLVESGGGLVQPGGSLRLSCAASGFAFSSDWMGWFRQAPGKEREWVASVLRGGYTWYADSVKGRFTISADNSKNTAYLQMNSLKPEDTAVYYCATEGLGYWGQGTLVTVSS
notes: VHH-Fc
Kd [2]: 112000 nM | koff [2]: 0.00692 s⁻¹ | kon [2]: 143 M⁻¹ s⁻¹ | OD (450 nm) [3]: 0.374 OD

B5: TIGIT-SC138 (Fc fusion)
VHH: EVQLVESGGGLVQPGGSLRLSCAASGFTLENNMMGWFRQAPGKGREFVAAISRSGTLKAYADSVKGRFTISADNSKNTAYLQMNSLKPEDTAVYYCARVRYYYDSSGYFFWFDLWGQGTLVTVSS
notes: VHH-Fc
Kd [2]: 7300 nM | koff [2]: 0.363 s⁻¹ | kon [2]: 49700 M⁻¹ s⁻¹ | OD (450 nm) [3]: 0.393 OD

B6: TIGIT-211-17 (antibody, V domains shown)
VH: EVQLLESGGGLVQPGGSLRLSCAASGFTFAEYSMNWVRQAPGKGLEWVSWISPHGALTYYADSVKGRFTISRDNSKNTLYLQMNSLRAEDTAVYYCARSYGGGFDYWGQGTLVTVSS
VL: DIQMTQSPSSLSASVGDRVTITCRASQTIERRLNWYQQKPGKAPKLLIYQNDKRPSGVPSRFSGSGSGTDFTLTISSLQPEDFATYYCQQSYSIPPTFGQGTKVEIK
ELISA [4]: 13.2 | Kd [5]: 472 nM | koff [5]: 0.126 s⁻¹ | kon [5]: 266000 M⁻¹ s⁻¹

B7: TIGIT-SC135 (Fc fusion)
VHH: EVQLVESGGGLVQPGGSLRLSCAASGFAFGDSWMGWFRQAPGKEREWVASVLRGGTLRAYAVSVKGRFTISADNSKNAAYLQMNSLKPEDTAVYYCARASIVGTTTLVWGQGTLVTVSS
notes: VHH-Fc
Kd [2]: 1670 nM | koff [2]: 0.21 s⁻¹ | kon [2]: 126000 M⁻¹ s⁻¹ | OD (450 nm) [3]: 0.827 OD

B8: TIGIT-30-15 VHH-V5-His (VHH)
VHH: EVQLVESGGGLVQAGGSLRLSCAASGFTFSGNWMGWFRQAPGKEREWVSGISSGGGRTYYADSVKGRFTISADNAKNTVYLQMNSLKPEDTAVYYCAADVWYGSTWRNWGQGTQVTVSS
notes: not shown: V5 and His tags
Kd [6]: 215 nM | RU [1]: 66 RU

B9: TIGIT-30-49 VHH-V5-His (VHH)
VHH: EVQLVESGGGLVQAGGSLRLSCAASGNIFSRYIMGWFRQAPGKEREWVAGISNGGTTKYADSVKGRFTISADNAKNTVYLQMNSLKPEDTAVYYCAQGWKIVPTNWGQGTQVTVSS
notes: not shown: V5 and His tags
Kd [6]: 945 nM | RU [1]: 99 RU

B10: TIGIT-30-43 VHH-V5-His (VHH)
VHH: B11 VHH with A28T, S31T, Y32S
notes: not shown: V5 and His tags
Kd [6]: 107 nM | RU [1]: 407 RU

B14: TIGIT-29-18 VHH-V5-His (VHH)
VHH: B15 VHH with I28T, L29F, S31N, T33A, T50A, S52N, R53S, S55G, T56S
notes: not shown: V5 and His tags
Kd [6]: 352 nM | RU [1]: 157 RU

B18: TIGIT-SC151 (Fc fusion)
VHH: EVQLVESGGGLVQPGGSLRLSCAASGFPFSIYPMGWFRQAPGKEREFVAAISASGTLRAYADSVKGRFTISADNSKNTAYLQMNSLKPEDTAVYYCARSSSWVRIFDYWGQGTLVTVSS
notes: VHH-Fc
OD (450 nm) [3]: 0.206 OD | EC50 [7]: 4.14 nM

B19: TIGIT-29-10 VHH-V5-His (VHH)
VHH: EVQLVESGGGLVQAGGSLRLSCAASGRTFSNYGMGWFRQAPGKEREFVSGISGSGGRTSYADSVKGRFTISADNAKNTVYLQMNSLKPEDTAVYYCAANLWYPVDRLNTGFNYWGQGTQVTVSS
notes: not shown: V5 and His tags
Kd [6]: 323 nM | RU [1]: 36 RU

B20: TIGIT-30-52 VHH-V5-His (VHH)
VHH: EVQLVESGGGLVQAGGSLRLSCAASGRTFSNYFMGWFRQAPGKERESVATVTWRDNITYYADSVKGRFTISADNAKNTVYLQMNSLKPEDTAVYYCASAGRWGQGTQVTVSS
notes: not shown: V5 and His tags
RU [1]: 270 RU

B21: TIGIT-SC193 (Fc fusion)
VHH: EVQLVESGGGLVQPGGSLRLSCAASGFTFSDYWMGWFRQAPGKEREFVAAISRSGTLKAYADSVKGRFTISADNSKNTAYLQMNSLKPEDTAVYYCARGSGWPKIHFDYWGQGTLVTVSS
notes: VHH-Fc
OD (450 nm) [3]: 0.151 OD | EC50 [7]: 4.39 nM

B22: TIGIT-30-30 VHH-V5-His (VHH)
VHH: EVQLVESGGGLVQAGGSLRLSCAASGGTFSGRGMGWFRQAPGKEREWVSSVYIFGGSTYYADSVKGRFTISADNAKNTVYLQMNSLKPEDTAVYYCANSNKPKFDWGQGTQVTVSS
notes: not shown: V5 and His tags
RU [1]: 3 RU

B24: TIGIT-30-20 VHH-V5-His (VHH)
VHH: EVQLVESGGGLVQAGGSLRLSCAASGPTFSIYDMGWFRQAPGKEREFVAVINWSRGSTFYADSVKGRFTISADNAKNTVYLQMNSLKPEDTAVYYCAAGVWSSLRHTAANWGQGTQVTVSS
notes: not shown: V5 and His tags
Kd [6]: 195 nM | RU [1]: 69 RU

B25: TIGIT-29-01 VHH-V5-His (VHH)
VHH: B26 VHH with F27R, S31N, R102T, Y103I, S104Y
notes: not shown: V5 and His tags
Kd [6]: 365 nM | RU [1]: 88 RU

B27: TIGIT-29-12 VHH-V5-His (VHH)
VHH: B26 VHH with F27S, D59N, R102T, Y103I, S104Y, E105T, Y108S
notes: not shown: V5 and His tags
Kd [6]: 8580 nM | RU [1]: 464 RU

B29: TIGIT-29-33 VHH-V5-His (VHH)
VHH: EVQLVESGGGLVQAGGSLRLSCAASGFIFSTYAMGWFRQAPGKERELVSAITRSGITTYYADSVKGRFTISADNAKNTVYLQMNSLKPEDTAVYYCAAAAWTIYEYDYWGQGTQVTVSS
notes: not shown: V5 and His tags
RU [1]: 202 RU
